This assay concerns the target snx9_human SNX9 (UniProt Q9Y5X1).

Sequence of snx9_human SNX9 (Q9Y5X1 whole entry): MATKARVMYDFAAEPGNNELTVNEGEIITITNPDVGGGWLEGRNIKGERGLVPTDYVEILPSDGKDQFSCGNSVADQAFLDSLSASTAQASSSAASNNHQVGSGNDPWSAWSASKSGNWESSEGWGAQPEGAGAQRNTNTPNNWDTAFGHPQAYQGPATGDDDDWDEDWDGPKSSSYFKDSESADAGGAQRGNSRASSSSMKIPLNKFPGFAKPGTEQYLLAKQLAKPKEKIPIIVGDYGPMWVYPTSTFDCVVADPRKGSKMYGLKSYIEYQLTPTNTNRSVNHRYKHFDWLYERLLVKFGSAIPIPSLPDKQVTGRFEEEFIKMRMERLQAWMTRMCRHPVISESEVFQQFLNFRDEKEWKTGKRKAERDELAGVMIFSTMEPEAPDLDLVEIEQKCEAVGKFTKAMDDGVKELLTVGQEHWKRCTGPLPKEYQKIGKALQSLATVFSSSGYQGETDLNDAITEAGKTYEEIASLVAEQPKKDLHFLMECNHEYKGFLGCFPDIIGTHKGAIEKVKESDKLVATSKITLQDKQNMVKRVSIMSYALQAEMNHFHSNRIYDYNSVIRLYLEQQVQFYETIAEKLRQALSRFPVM
Sequence of Inositol polyphosphate 5-phosphatase OCRL (Homo sapiens), Q01968 P177A;P178A;P181A (Q01968 whole entry P177A/P178A/P181A): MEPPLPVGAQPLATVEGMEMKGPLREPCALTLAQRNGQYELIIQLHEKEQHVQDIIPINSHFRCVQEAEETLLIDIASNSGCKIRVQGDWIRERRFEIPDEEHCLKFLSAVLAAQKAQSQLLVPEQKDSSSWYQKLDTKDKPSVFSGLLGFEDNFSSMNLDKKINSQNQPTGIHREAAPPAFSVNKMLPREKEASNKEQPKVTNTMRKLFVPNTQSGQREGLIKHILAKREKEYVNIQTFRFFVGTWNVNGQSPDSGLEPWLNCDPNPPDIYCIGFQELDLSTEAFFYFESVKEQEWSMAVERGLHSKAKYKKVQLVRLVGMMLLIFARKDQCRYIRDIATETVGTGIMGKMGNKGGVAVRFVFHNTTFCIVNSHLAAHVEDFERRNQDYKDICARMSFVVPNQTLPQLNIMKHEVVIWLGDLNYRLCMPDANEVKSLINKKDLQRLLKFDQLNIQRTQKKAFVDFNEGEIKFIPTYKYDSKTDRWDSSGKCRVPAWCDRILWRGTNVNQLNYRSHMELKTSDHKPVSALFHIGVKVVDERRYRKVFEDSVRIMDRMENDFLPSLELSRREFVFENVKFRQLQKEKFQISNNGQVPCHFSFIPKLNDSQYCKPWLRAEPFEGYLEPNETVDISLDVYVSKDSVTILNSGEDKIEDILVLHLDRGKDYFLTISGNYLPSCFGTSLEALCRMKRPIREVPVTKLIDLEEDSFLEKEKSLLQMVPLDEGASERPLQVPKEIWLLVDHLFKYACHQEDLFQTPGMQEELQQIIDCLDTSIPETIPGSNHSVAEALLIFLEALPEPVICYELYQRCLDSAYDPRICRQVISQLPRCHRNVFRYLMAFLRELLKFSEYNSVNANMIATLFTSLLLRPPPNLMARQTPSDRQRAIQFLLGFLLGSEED

Turning to “Inositol polyphosphate 5-phosphatase OCRL (Homo sapiens), Q01968 P177A;P178A;P181A”, the “effect of a mutation on the interaction” value is listed as “disrupting interaction”.

The record behind these values is IntAct's records for PubMed 25107275.
